Laboratory results: US20230002798A1, “PROCESS FOR THE PREPARATION OF A FERMENTABLE SUGAR COMPOSITION AND THE FERMENTATION THEREOF” (WeissBioTech GmbH, priority 2019, published 2023)

What was measured:
[1] = SSF of maltodextrins with added isomaltose, 24 h (Example 1); design: species or system Yeast (Deltaferm® AL-18); details: SSF 24 h, maltodextrin + 20 g/L isomaltose, enzyme 187.5 kU per ton
Description: (§1) Quantification of ethanol yield Ethanol was quantified via HPLC. Samples were taken at the end of the SSF or during SSF at set time points. Samples were centrifuged for 1 min at 17,000 xg and sterile filtered (0.2 μm). The samples were frozen at −80° C. prior to measurements. Ethanol was determined with an Aminex 87C column (Bio-Rad Laboratories, Inc., US) on a Shimadzu HPLC system.
For simultaneous saccharification and fermentation (abbreviated SSF), the oligo-1,6-glucosidases—either Agl1 or Gth—were used as crude Bacillus extract. Glucidex® Maltodextrin 12 (Roquette, FR) was dissolved in SSF-medium (5 g/L yeast extract, 5 g/L peptone, 1 g/L K2HIPO4, 0.5 g/L Mg2SO4 in 50 mM citrate buffer, pH 4.8) at 300 g/L. Panose, isomaltose, isomaltotriose, maltose, maltotriose, or trehalose was added at 20 g/L. As a positive control, 20 g/L glucose was added instead of the respective sugar. The SSF medium containing starch hydrolysate (maltodextrins) and sugars was sterile filtered (0.2 μm). Yeast (Deltaferm® AL-18, WeissBioTech GmbH, Ascheberg, Germany) was grown in YINaC medium (50 g/L dextrose, 5 g/L yeast extract, 5 g/L peptone, 1 g/L K2HPO4, 0.5 g/L Mg2SO4*7H2O, 2 g/L NH4Cl in 50 mM sodium citrate, pH 4.8) for 2 days at 37° C. and harvested by centrifugation for 15 min at 5100 rpm and 8° C. […]

[2] = SSF of maltodextrins with added maltotriose, 24 h (Example 1); design: species or system Yeast (Deltaferm® AL-18); details: SSF 24 h, maltodextrin + 20 g/L maltotriose, enzyme 187.5 kU per ton
Description: as §1
(§2) For simultaneous saccharification and fermentation (abbreviated SSF), the oligo-1,6-glucosidases—either Agl1 or Gth—were used as crude Bacillus extract. Glucidex® Maltodextrin 12 (Roquette, FR) was dissolved in SSF-medium (5 g/L yeast extract, 5 g/L peptone, 1 g/L K2HIPO4, 0.5 g/L Mg2SO4 in 50 mM citrate buffer, pH 4.8) at 300 g/L. Panose, isomaltose, isomaltotriose, maltose, maltotriose, or trehalose was added at 20 g/L. As a positive control, 20 g/L glucose was added instead of the respective sugar. The SSF medium containing starch hydrolysate (maltodextrins) and sugars was sterile filtered (0.2 μm). Yeast (Deltaferm® AL-18, WeissBioTech GmbH, Ascheberg, Germany) was grown in YINaC medium (50 g/L dextrose, 5 g/L yeast extract, 5 g/L peptone, 1 g/L K2HPO4, 0.5 g/L Mg2SO4*7H2O, 2 g/L NH4Cl in 50 mM sodium citrate, pH 4.8) for 2 days at 37° C. and harvested by centrifugation for 15 min at 5100 rpm and 8° C. Pelleted yeast was added to the SSF-medium at a final concentration of 6 g/L. Glucoamylase (Deltazym® GA L-E5, WeissBioTech GmbH, Ascheberg, Germany) was added at 40 g per ton of dry starch equivalent. The enzyme product Agl1 or Gth was added up to a final concentration of 187.5 kU per ton of dry starch equivalent. For the SSF with trehalose, Agl1 or Gth was added at 937.5 kU per ton of dry starch equivalent. As a negative control, an SSF as described above was run without oligo-1,6-glucosidase/enzyme product. The SSF was performed at 30° C. without stirring or shaking for 24 h.

[3] = Industry-relevant SSF of maltodextrins with added panose, 72 h (Example 2); design: species or system Yeast (Deltaferm® AL-18); details: SSF 72 h, maltodextrin + 20 g/L panose, glucoamylase 400 g/t, enzyme 187.5 kU per ton
Description: as §1
For the SSF, the enzyme product was used as crude Bacillus extract. Glucidex® Maltodextrin 12 was dissolved in SSF medium (5 g/L yeast extract, 5 g/L peptone, 1 g/L K2HIPO4, 0.5 g/L Mg2SO4 in 50 mM citrate buffer, pH 4.8) at 300 g/L. Panose was added at 20 g/L. As a positive control, 20 g/L glucose was added. The SSF medium containing starch and sugars was sterile filtered (0.2 μm). Yeast (Deltaferm® AL-18, WeissBioTech GmbH, Ascheberg, Germany) was grown in YINaC medium (50 g/L dextrose, 5 g/L yeast extract, 5 g/L peptone, 1 g/L K2HPO4, 0.5 g/L Mg2SO4*7H2O, 2 g/L NH4Cl in 50 mM sodium citrate, pH 4.8) for 2 days at 37° C. and harvested by centrifugation for 15 min at 5100 rpm and 8° C. Pelleted yeast was added to the SSF at a final concentration of 6 g/L. Glucoamylase (Deltazym® GA L-E5, WeissBioTech GmbH, Ascheberg, Germany) was added at 400 g per ton of dry starch equivalent. The enzyme product Agl1 or Gth was added to a final concentration of 187.5 kU per ton of dry starch equivalent. As a negative control, no oligo-1,6-glucosidase/enzyme product was added. The SSF was performed at 30° C. without stirring or shaking for 72 h.

[4] = Storage stability (50% v/v glycerol, 4° C.); format: physicochemical; details: at 4° C., extrapolated from 12 months data
Description: Storage stability was determined by measuring the activity of the enzymes stored in a glass container in a stabilizing formulation (50% v/v glycerol) at 4° C. over a time period of 12 months. […] “Without a loss in activity” is defined as an extrapolated activity of greater than 95% of the initial activity.

[5] = SSF of maltodextrins with added trehalose, 24 h (Example 1); design: species or system Yeast (Deltaferm® AL-18); details: SSF 24 h, maltodextrin + 20 g/L trehalose, enzyme 937.5 kU per ton
Description: as §1, §2

[6] = Temperature range of enzyme activity; format: biochemical; details: 30° C.-80° C. investigated
Description: The temperature range was investigated from 30° C.-80° C. by incubating the enzymes and measuring their activity at the respective temperature.

[7] = SSF of maltodextrins with added isomaltotriose, 24 h (Example 1); design: species or system Yeast (Deltaferm® AL-18); details: SSF 24 h, maltodextrin + 20 g/L isomaltotriose, enzyme 187.5 kU per ton
Description: as §1, §2

[8] = Lab-scale SSF run with 32% dextrins supplemented with panose; design: species or system alcohol yeasts (Deltaferm® AL-18); details: 30° C., pH 4.8, 72 h, glucoamylase 415 g/t, yeast 6 g/L
[9] = format: biochemical; details: pH 5
Description: For activity measurements, the enzyme Agl1 was incubated with 10 mM and 50 mM panose, isomaltose, isomaltotriose, maltose, maltotriose, and trehalose for 10 min at 37° C. in Britton-Robertson buffer, pH 5. The enzyme Gth was incubated with 15 mM panose, 10 and 50 mM isomaltose, and 10, 50 and 100 mM maltotriose and trehalose for 10 min at 37° C. in Britton-Robertson buffer, pH 5. The reaction was stopped with 60 μL of 1 M NaOH, followed by addition of 60 μL of 1 M HCL. The amount of produced glucose was quantified using a standardized glucose assay kit (D-Glucose HK Assay Kit, Megazyme u.c. IRE). Glucose concentration was determined as specified in the instructions. Units are defined as the amount of enzyme required to produce one μmol of glucose per minute.

Row | Molecule | ethanol concentration increase by % compared to the negative control [1] | ethanol concentration increase compared to the negative control [1] | ethanol concentration increase by % compared to the negative control [2] | ethanol concentration increase compared to the negative control [2] | ethanol concentration increase by % compared to the negative control [3] | ethanol concentration increase compared to the negative control [3] | storage stability without a loss in activity [4] | ethanol concentration increase by % compared to the negative control [5] | ethanol concentration increase compared to the negative control [5] | temperature range [6] | ethanol concentration increase by % compared to the negative control [7] | ethanol concentration increase compared to the negative control [7] | increase of ethanol yield [8] | substrate degradation (activity on trehalose) [9]
1 | Agl1: oligo-1,6-glucosidase of Bifidobacterium breve UCC2003, amino acid sequence SEQ ID NO:1, expressed in Bacillus subtilis (protein, Bifidobacterium breve UCC2003; ACM89182.1 alpha-glucosidase 1) MMTTFNRAIIPDAIRTNGATPNPWWSNAVVYQIYPRSFQDTNGDGFGDLKGITSRLDYLADLGVDVLWLSPVYKSPQDDNGYDISDYQDIDPLFGTLDDMDELLAEAHKRGLKVVMDLVVNHTSDEHAWFEASKNKDDEHADWYWWRPARPGTTPGEPGSEPNQWGSYFGGSAWEYCPERGEYYLHQFSKKQPDLNWENPAVRRAVYDMMNWWLDRGIDGFRMDVITLISKRTDANGRLPGEYGSELDDLPVGEEGYSNPNPFCADGPRQDEFLKEMRREVFAGREGFLTVGEAPGITPVRNEHITNPANGELDMLFLFDHVDFDCDGVKWKPLPLDLPGFKRIMAGYQTAVENVGWASLFTGNHDQPRVVSRWGDDSSEESRVRSAKALGLMLHMHRGTPYVYQGEELGMTNAHFTSLDQYRDLESLNAYRQRVEEAKVQSPESMLAGIAARGRDNSRTPMQWDGSAYAGFTAPDAATEPWISVNPNHAEINAAGEFDDPDSVYAFYKKLIALRHNSSIVAAGEWQLIDADDAHVYAFTRTLGNERLLVVVNLSGRTVDLPRESTELIAGGVTEPDIILSTYDAPHTVVSLANRELDPWEAAAVQL | 74% | 0.98 percentage points (v/v) | 1% | 0.03 percentage points (v/v) | 8% | 1.16 percentage points (v/v) | 18-24 month | 226% | 1.86 percentage points (v/v) | 30-50 °C | 40% | 0.48 percentage points (v/v) | 2% | breaks down trehalose
2 | Gth: oligo-1,6-glucosidase of Parageobacillus thermoglucosidasius, amino acid sequence SEQ ID NO:2, expressed in Bacillus subtilis (protein, listed as Parageobacillus thermoglucosidasius, WP_042386239.1 alpha-glucosidase) MERVWWKEAVVYQIYPRSFYDSNGDGIGDIRGIIAKLDYLKELGVDVVWLSPVYKSPNDDNGYDISDYRDIMDEFGTMADWKTMLEEMHKRGIKLVMDLVVNHTSDEHPWFIESRKSKDNPYRDYYIWRPGKNGKEPNNWESVFSGSAWEYDEMTGEYYLHLFSKKQPDLNWENPKVRREVYEMMKFWLDKGVDGFRMDVINMISKVPELPDGEPQSGKKYASGSRYYMNGPRVHEFLQEMNREVLSKYDIMTVGETPGVTPKEGILYTDPSRRELNMVFQFEHMDLDSGPGGKWDIRPWSLADLKKTMTKWQKELEGKGWNSLYLNNHDQPRAVSRFGDDGKYRVESAKMLATFLHMMQGTPYIYQGEEIGMTNVRFPSIEDYRDIETLNMYKERVEEYGEDPQEVMEKIYYKGRDNARTPMQWDDSENAGFTAGTPWIPVNPNYKEINVKAALEDPNSVFHYYKKLIQLRKQHDIIVYGTYDLILEDDPYIYAYTRTLGNEQLIVITNFSEKTPVFRLPDHIIYKTKELLISNYDVDEAEELKEIRLRPWEARVYKIRLP | – | – | 0% | 0.00 percentage points (v/v) | 15% | 1.77 percentage points (v/v) | 18-24 month | 31% | 0.26 percentage points (v/v) | 30-70 °C | 48% | 0.57 percentage points (v/v) | 2% | –
